Results from article PMC10967716.

Molecular target: α-Methylacyl-CoA racemase from Mycobacterium tuberculosis, wild-type (M. tuberculosis) (UniProt O06543)
Test: SEC

**Q.** With “α-Methylacyl-CoA racemase from Mycobacterium tuberculosis, wild-type (from UniProt O06543 1-360) (enzyme)” as the substance, how does the stoichiometry N read?
**A.** 2
